Experimental data from the DeepSol protein solubility set.

Experiment: soluble on expression in E. coli; label from the status in PepcDB or PDB records

Row | Sequence | soluble on expression in E. coli
1 | MITLEQKLEQYKHTYVQLKGELKWKTSDSRTGMMIAAMYAGSDKLFDLGRFLEISSYIKNQVGMFSYLKSYHRFVVAATLDIHFTDYKEAFRKFLDLYEQLVTGGFSRSIFTYLAAAVLLTEENEQHGAHIQRSMQVYKRMKKDHLFLTSTNDYPLAVLLAGQSEHVETLMDRVERLYQKLATAGLRKGNDLQFLSHILSLKKDVREELLVAKCTNIWNLLKQEKVKVKQMHYPAIGLLALLEDGEKEIHSIRAFIEKLQGDKLFRWHTDTNILIAIQLFVSQKGEESKATNTGLQTMIEVLIQAQQAAMMATIAASSAATSSASSSS | not soluble
2 | MSISIMTETRPESAEQQHHEVLQRPSDEPCSGCKQLQKDVAKTISMVMERMDKLQYRLDELLKENNELKSSSVSSGKASPSPAESRSSPKLVETVVAPVSGARKRKPKERSPPAAASPLPDFSNLMNGFMFDPLNMSNPNGMMQLLSMVQQQQQQQQHHQHIENQQSVSPPQSKSVKIEDPMDQDVKQEESERSDIPTATEAQNLLDALTAQFSSNGQATSTTSPPSSSSQVQAVIEAVATPSSQSQDSSMFEKTETSGDPNAARCSNCRTDKTTAWRRDAEGKLVCNPCGLYYRLHKVRRPIEMRKNHIQQRYRRKNKEKESSAATQIFNQLLTQMPTMATGGVSTDGAINTFNLLEQISQFTQAQELMNSSATF | not soluble
3 | MSLNFPGSSSLLIVGASTRAAACSAVRAGFQPVCADQFADRDLRAVSEVVIKIDEHCHWLEEILKREPQNWIYTGALENRPEVINAINQRHTLLGNAEESLKKVRDPFFLQDMLVDQPIAISPCLPVDTQTPPRELWLRKPRLSAAGQGISFADSHTTDPTDSTQYYLQQFQPGIPLSALYLACDDCCVLIGTAVQFIGNRALHATGFQFCGGMTLPSMPPEWRHALGKLGHNIARGCHLRGLFGCDLIWNPDGQPGLWLTEVNPRYTALTELFELQYCLPLLRWHFAACRSCDASSAVAGTLADELIQLLKTKEKRTLSTVSKGIMYAPTDLTTPDLPWESSPRQVAWQIPTIADVPDRGTRIPAGTPVCTLYGTGDDQGECLLSMADQILRCQGQIQPELPRDLSRNEVRNMLWPRKESEKLNFSGFFSSRNVSGSFLEDEGHHHHHH | soluble
4 | MAHHHHHHMDSEKNSPLEYQETMNDLGEDIEDMEAQSINHGEAKMSVDIKSGKGDKGGEEVDVADAENVESNADNALYIYSTDSAKNILKENLEDYLKQLDFYKSNPKCKIDPAIYMEGTEEVENYVVKEKILITTYYQYIDMYESSIDVEEDLEREEIVYVEVPKYIIKYNPKVITNYIEKTIEVPSGEEIKRPVYKKLNVPYVVPHVVENETQVVLKKIVQPEIHTSNEEIEVEVQKYVPRLVPVNVYVPRYFGLSAKTTDEVEESVHYADLTQEQTDYLMKELNPHLDDLKKFNEEQLERMNEYIRESAQQAESHDLNPPKPELVSYDLDGSIQTLDYSDFTQFKEICQRELTC | soluble
5 | MSLTEFPGIVKEYEAITRYCGFNSIEAGKTMGLSPYGEPNPEIPPMFVNGFGNRNLFKPNYPNGAYVIEDRYKIIRDDYISHNGEVGTGEYTQVQKDLAYAIQKESEDQMCALIQKAHEMTGEKNIVICGGYGLNCVANYKFKQRFPNLNIYVEPISHDGGTSMGGAYHVYYNDYVKTGKESRKVEPPKTIYYGPQYDPDTYLNYIHEYPSAKVTDASYDSVARLIREGNIVTIFQGRSEAGPRALGNRSILFDPTIKDGKDIVNSVKHREFFRPFACSILADKVHDWFDLAGMDDSPSMMYAVDALPGVAEKIPSVIHVDNTCRIQTVTKEQNEHYYNLISAFEKLSNTPILFNTSFNLGGDPLVEDIDDALDTLSTSDINYMYLPEIQKLVELKTREMQDTRQQPINEGHHHHHH | soluble
6 | MSETGTRISPLFSHRRWKLQVLDLQDVCENFWMVWSEAMARGCFLNAKRNKKPVQDCPRMRGRQPLTVFVELWLKNRTLDEHLTCLLLWVKQRKDLLHLCCKKLKILGMPFRNIRSILKMVNLDCIQEVEVNCKWVLPILTQFTPYLGHMRNLQKLVLSHMDVSRYVSPEQKKEIVTQFTTQFLKLHCLQKLYMNSVSFLEGHLDQLLSCLKTSLKVLTITNCVLLESDLKHLSQCPSISQLKTLDLSGIRLTNYSLVPLQILLEKVAATLEYLDLDDCGIIDSQVNAILPALSRCFELNTFSFCGNPISMATLENLLSHTIILKNLCLELYPAPRESYGADGTLCWSRFTQIRAELMKRVRDLRHPKRILFGTDYCPDCGNRSFYDLEADQYCC | not soluble
7 | MSMSDIGGKDRLNDEKRVTVRLSRSMVEEMEDLVNRDEYESVSDLVRKAVSALLESRGVNSDFLPVQIMVPKNLIEKLGKDSTKPVNLSLDEFSSLILDRINGLTVRETIKKIVHEENIK | not soluble
8 | MGSSHHHHHHSSGLVPRGSGDPDEQYDFLFKLVLVGDASVGKTCVVQRFKTGAFSERQGSTIGVDFTMKTLEIQGKRVKLQIWDTAGQERFRTITQSYYRSANGAILAYDITKRSSFLSVPHWIEDVRKYAGSNIVQLLIGNKSDLSELREVSLAEAQSLAEHYDILCAIETSAKDSSNVEEAFLRVATELIMRHGGPLFS | soluble
9 | MSLSRVRLVIAQCTVDYIGRLTAHLPSARRLLLFKADGSVSVHADDRAYKPLNWMSPPCWLTEESGGQAPVWVVENKAGEQLRITIEGIEHDSSHELGVDPGLVKDGVEAHLQALLAEHIQLLGEGYTLVRREYMTAIGPVDLLCSDERGGSVAVEIKRRGEIDGVEQLTRYLELLNRDSVLAPVKGVFAAQQIKPQARILATDRGIRCLTLDYDTMRGMDSGEYRLFEGHHHHHH | soluble
10 | MFFVLSPAKNLNEKDPAPVSEFTQPDLLAESDILMQQLRELAPQQIAELMHVSDKIALLNAQRNAEWNTPFTPENAKQAVFMFNGDVYEGMDANTLDIGQIRYLQNHVRLLSGLYGLLRPLDLIQPYRLEMGTAFANLRGKNLYEFWGDIITNLLNDTLAQAGSNTLVNLASQEYFKSVNTKKLRARLITPIFKDEKNGKYKIISFYAKRARGLMVRYAAEHHITDPEMLKNFNYEGYAFNDAASNESEWVFMRSEQIK | not soluble
11 | MGASKDAMDEEGNAAADLGLVARIRESFDSLTATEREAAQFILGHLTDVLVCNSVELSQLSGISQPTLSRLYRKLGYANAGEFRRDVRRVHRPGSPELSRHTQCDDLVADHLRRDEESLKRTFEGIDRAQLSSACQAMATAPHVAVVGYHSSYPVALHMREQLMRLRGNVDILPNPGQSIAEDLVDYAAGDVIVIIGVGRRLPFFSRLIDVMLERGLTVVVIGDISARNAVIGRNVAFFKVVLSSHVLTSFTAAFALIALMVDEVGKCLVDTEDEVHARIEGINDCFDALNELED | not soluble
12 | MSFYYSNIVSNQEKTFYDAQFSMSSLKQVSPISGSPQRDDSFNISPASSSPDMLVETWKSDEENAKSESPSSQSTTATSTNDDLFASVGTWEVHANENNITVNKKKKRSRKIRRLRDVQDSDEERPKPVIALVPLVPNPFCVSDSLLSKLGPVATKRRRVCFNPTISFHYYCVDK | not soluble
13 | MAQMYFYYSAMNAGKSTTLLQSSFNYQERGMTPVIFTAALDDRYGVGKVSSRIGLQSDAHLFRPDTNLYQEIAALHEVEKRHCIL | not soluble
14 | MGHHHHHHSHLSPEPPVYSLQDFDTLATVGTGTFGRVHLVKEKTAKHFFALKVMSIPDVIRLKQEQHVHNEKSVLKEVSHPFLIRLFWTWHDERFLYMLMEYVPGGELFSYLRNRGRFSSTTGLFYSAEIICAIEYLHSKEIVYRDLKPENILLDRDGHIKLTDFGFAKKLVDRTWTLCGTPEYLAPEVIQSKGHGRAVDWWALGILIFEMLSGFPPFFDDNPFGIYQKILAGKIDFPRHLDFHVKDLIKKLLVVDRTRRLGNMKNGANDVKHHRWFRSVDWEAVPQRKLKPPIVPKIAGDGDTSNFET | not soluble
15 | MSLTLDLRESEIVEAVYESNHTWVSVEAKIDYELDPTVLFHLTEENAGDRFYYKKNDNKTSFFGYHAITRFKNDFENKQSIFREWQKYKSDIELIHPSSDKHHLKICGGFQFSMHKSGDEWREFGINHFILPEVLITMENGVSYITYTVKAEQFEIEQFKALIAHLTQNTIDSEFEIGNIKRIEDIYKDEWRDLVKDTIDVLDEHKKIVLARKRLVMFDKNINIPYILQKASQGEHNSYLFVLESQDSIFFSQTPEQLMEVNNGILSTKAVAGTIKRTHQDEVDKENIQAFLNDDKNLNEHRFVVESILNDIAPYVRDITFNETPQILTNDHLYHLYTKIKGQLENDSYIGLLDNLHPTPALGGYPKAEAIEYIEQNEFGTRGLYGAPVGYIDMNDDCEFIVAIRSMLIKKNQATLFAGCGIVKNSDADSEVEETAVKFNPMMKALGVEEYEGHHHHHH | soluble
